Results published in article PMC4646009.
Like-named read-outs stand apart in the source and are kept apart here.

Legend:
[1] = molecular target: Streptococcus thermophilus QueG (epoxyqueuosine reductase) (Streptococcus thermophilus); assay: native MS; nano-ESI, Waters Synapt G2, protein at 3-30 uM in anaerobic 100 mM ammonium acetate pH 6.8; monomer to dimer
[2] = molecular target: Streptococcus thermophilus QueG (epoxyqueuosine reductase) (Streptococcus thermophilus); assay: as above; remark: listed apart in the source

## Streptococcus thermophilus QueG (epoxyqueuosine reductase) (enzyme)
[1]
  proportion of dimer: 5%
  stoichiometry N: 2
[2]
  proportion of dimer: < 5%
